The text below walks through data of patent US12281161B2, “Polypeptides and uses thereof” (TRUSTEES OF BOSTON UNIVERSITY, priority 2021, dated 2025).

Where two headings read alike, the source gives them in different places. Primed or numbered codes have the meaning given here. Where no end group is shown, it is not given here. [ ]: non-standard residue; d: D form. DBCO‑MMAE = DBCO-PEG3-glutamic acid-valine-citrulline-p-aminobenzylcarbamate-MMAE (DBCO-PEG3-EVC-PABC-MMAE); Lys(N3)′ = its azide, alkyne or alkene has reacted where a group follows in round brackets

The subject of data set [1] is NCI-H358. The data set is described as follows: in vitro cytotoxicity (MTT). The data set is classed as cell-based, human. How it is done: (§1) We utilized two different incubation methods.
(§2) We then incubated the human cell lines with ADC, and equivalent concentrations of MMAE and native Ab for both 48 hours and 72 hours, the results of which can be seen in FIG. 13A-13E. We expected the results to correlate with the GPR87 expression we observed by flow cytometry. For the normal cell lines, this was the case. As detailed in FIG. 14, the line that was most sensitive to the ADC were the NHLFs, followed by the BEAS-2Bs, and the line with the lowest GPR87 expression, the HUVECs, had the highest IC50 after 72 hours. However, both the NSCLC cell lines had relatively high IC50s given the GPR87 expression status of these lines.
(§3) In comparison, NCI-H358 and NCI-H520 see approximately a 4-fold or 2-fold decrease in IC50, respectively, between the two time points. On the other hand, the NCI-H520 line has almost a 10-fold increase in MMAE IC50 at 72 hours compared to 48 hours. The results are likely because the cell lines are different sizes and morphologies and therefore are at different confluencies when plated at the same number of cells per well and are therefore likely to be in different parts of their log growth phase during treatment. For example, the NSCLC lines are typically at very low confluency at a plating density of 5,000 cells per well and may not reach log phase growth until later in the assay. As MMAE affects actively dividing cells, this will affect the results of the assay. While 72 hours was not the optimized end time point for all five cell lines, in order to have a standardized cell plating density, and therefore same ADC:cell ratio, going past 72 hours for some of the cell lines would lead to confluency or death in untreated control cells, which would also confound results. Thus, we incubated the two NSCLC lines for longer periods of time to allow the control cells to become more confluent by the assay endpoint, and to see how this would affect the ADC IC50.
(§4) Standard cytotoxicity assays, like the MTT assays ran here, measure or rather, approximate the cell number at an end point and compare to control untreated cells. Effectively what is measured is a comparison between growth rates. When comparing the efficacy of a drug, particularly a mitotic inhibitor, among different cell lines, division rate differences due to biology, media additives, or seeding density can have a dramatic effect on the IC50, an issue brought up by Hafner et al. They reported with both modeling and in vitro assays how using the IC50 as a metric can actually mask the true mechanism of a drug, for example the microtubule inhibitor paclitaxel. […] GR values indicate whether a drug inhibits growth (0<GR<1), is cytostatic (GR=0) or cytotoxic (GR<0). To calculate this parameter, one needs cell count data for at least two different time points and compares experimental growth rates to the growth rate of control cells. […] Consequently, we reviewed the data at our two time points to perform a similar analysis. We plated at the same seeding density for both the 48 and 72 hour time points. As MTT is an endpoint assay rather than a kinetic assay like MTS, we can use MTT signal as a proxy for cell count. […] Therefore, we excluded this cell line from our analysis. We are technically assessing the effect the ADC or equivalent MMAE has on the growth rate of cells at 60 hours, as we are measuring at t=x±delta t, with x being 60 and delta t being 12 hours. Ideally, we would assess an earlier time point or even multiple time points. […] (FIGS. 19A-19D). Conversely, both NCI-H520 and NCI-H358 are cytotoxic (GR<0) at higher concentrations of ADC at this time point. […] While the GR50 data is still not in agreement with GPR87 expression, it does indicate that this type of analysis at other, earlier, time points is useful in assessing the dynamics of ADC and MMAE cytotoxicity in these cell lines.

Data set [2] addresses GPR87 antigen (Homo sapiens, UniProt Q9BY21). As to the kind of experiment: custom ELISA binding analysis of αGPR87 antibody, Ab-CCK and ADC. How it is done:
With the CCE-MMAE peptide successfully synthesized and previous optimization of the antibody loading process with the AFC, it was facile to translate the method to formulating the ADC. Using a similar custom ELISA as before, but with a secondary antibody recognizing mouse antibody, it was contemplated whether the loading of CCE-MMAE, the 50° C. incubation, or even the expression of the peptide tails affected the binding affinity of the antibody. (FIG. 8C) What was found was initially surprising, which was that by adding the peptide tails onto the antibody, the Kd was affected. […] However, if it was taken into consideration the SEC data showing the larger aggregates formed by these antibodies, the results are more consistent. The original analysis was done by using the wt/vol concentration of the antibodies. However, if there are larger aggregates forming such as hexamers of Ab-CCK or hexamers, trimers, and monomers of the ADC, then equivalent wt/vol concentrations will vary by molarity. If it was assumed the Ab-CCK exists as a hexamer and therefore at the same wt/vol concentration as the native Ab is at one sixth the molar concentration, the binding data can be reanalyzed with these adjusted molarities. Similarly, it can be assumed the ADC is forming on average trimers and adjust the molar concentration by one third accordingly. The resulting curves are similar, with the Ab, Ab-CCK, and ADC having Kds of approximately 0.43, 0.46, and 0.41 nM, respectively.

Data set [3] relates to NCI-H520. As to the kind of experiment: in vitro cytotoxicity (MTT). The data set is classed as cell-based, human. How it is done: as §1, §2, §3, §4
Data set [4] relates to BEAS-2B. The data set is described as follows: in vitro cytotoxicity (MTT). The data set is classed as cell-based, human. How it is done:
as §1, §2, §4

Data set [5] deals with NHLF. As to the kind of experiment: in vitro cytotoxicity (MTT). It counts as cell-based, human. How it is done:
as §1, §2, §4

The test system of data set [6] is NCI-H358, NCI-H520, NHLF, BEAS-2B, HUVEC. The data set is described as follows: in vitro cytotoxicity, comparison of ADC and MMAE over the five cell lines. The data set is classed as cell-based, human. The note with it: 48 and 72 hours. How it is done:
as §2
We investigated analyzing other parameters, such as the area under the curve (AUC) for the five cell lines as we noted that the hill slope was variable between different cell lines and between ADC and MMAE treatments. By assessing the AUC, we could interpret the total cytotoxicity of the treatment over all concentrations tested. Rather than the large (>100) fold differences in ADC and MMAE IC50s observed in FIG. 14, FIG. 16 indicates the difference in toxicity between the two are less pronounced, on the order of 1-3-fold difference. However, comparing the toxicity of the ADC across the cell lines, the relationships, or lack thereof, between toxicity and GPR87 expression remain largely the same.

Data set [7] concerns NIH-3T3. As to the kind of experiment: in vitro cytotoxicity, negative control line. The conditions noted are these: NIH-3T3, 10 μg/ml ADC, 72 hours.
Protocol: We incubated NIH-3T3s with up to 10 μg/ml of ADC (67 nM, equivalent to 96 ng/ml of MMAE) along with the native antibody and MMAE alone at equivalent concentrations.
[8] abbreviates: Ab-CCK assumed hexamer, ADC assumed trimer (from SEC), read-out: Kd, reanalyzed with adjusted molarities.
[9] abbreviates: ELISA, analysed by wt/vol concentration, read-out: Kd.

GPR87 antigen, sequence (Q9BY21 whole entry): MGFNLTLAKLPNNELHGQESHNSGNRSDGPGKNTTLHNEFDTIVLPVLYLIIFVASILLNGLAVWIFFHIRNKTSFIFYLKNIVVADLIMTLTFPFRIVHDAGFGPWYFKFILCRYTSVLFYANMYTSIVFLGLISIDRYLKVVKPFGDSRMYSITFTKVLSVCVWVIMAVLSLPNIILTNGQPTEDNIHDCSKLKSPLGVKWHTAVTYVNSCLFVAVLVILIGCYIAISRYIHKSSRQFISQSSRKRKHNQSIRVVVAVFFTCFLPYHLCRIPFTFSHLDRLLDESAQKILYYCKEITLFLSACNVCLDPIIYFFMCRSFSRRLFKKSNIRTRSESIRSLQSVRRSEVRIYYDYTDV

For “CCE-MMAE: CCE peptide (SEQ ID NO: 3) conjugated at azido lysine with DBCO-MMAE (MKLEEIVSELEEIVSELEEIV[Lys(N3)′](DBCO‑MMAE)ELEEIVYEVGER)”, the toxicity result in data set [1] (NCI-H358, 72 hours, concentrations equivalent to ADC) is listed as “Toxicity was only observed at the highest concentration”.

B1: Ab: native murine αhGPR87 IgG1 antibody (331CL), plasmids from Creative Biolabs (antibody)
heavy: EVQLQQSGPDLVKPGASMKISCKASGYSFTDYTMHWVKQSHGKNFEWIGLINPYNDGTTYNQKFKGKATLTVDKSSSTAYMELLSLTSEDSAVYYCASLDYWGQGTSVTVSSAKTTPPSVYPLAPGSAAQTNSMVTLGCLVKGYFPEPVTVTWNSGSLSSGVHTFPAVLQSDLYTLSSSVTVPSSTWPSETVTCNVAHPASSTKVDKKIVPRDCGCKPCICTVPEVSSVFIFPPKPKDVLTITLTPKVTCVVVDISKDDPEVQFSWFVDDVEVHTAQTQPREEQFNSTFRSVSELPIMHQDWLNGKEFKCRVNSAAFPAPIEKTISKTKGRPKAPQVYTIPPPKEQMAKDKVSLTCMITDFFPEDITVEWQWNGQPAENYKNTQPIMDTDGSYFVYSKLNVQKSNWEAGNTFTCSVLHEGLHNHHTEKSLSHSPGK
light: DVVMTQTPLSLPVSLGDQASISCRSSQSLVHSSGNTYLHWYLQKPGQSPKLLIYKVSNRFSGVPDRFSGSGSGTDFTLKISRVEAEDLGVYFCSQSTHVPYTFGGGTKLEIKRADAAPTVSIFPPSSEQLTSGGASVVCFLNNFYPKDINVKWKIDGSERQNGVLNSWTDQDSKDSTYSMSSTLTLTKDEYERHNSYTCEATHKTSTSPIVKSFNRNEC
Take B1: the Kd in data set [2] (setting [8]) is around 0.43 nM; in data set [2] (setting [9]) it was 0.4 nM.

B2: Ab-CCK: αGPR87 antibody 331CL with CCK peptide on the heavy chain C termini via a pentaglycine linker (antibody)
heavy: EVQLQQSGPDLVKPGASMKISCKASGYSFTDYTMHWVKQSHGKNFEWIGLINPYNDGTTYNQKFKGKATLTVDKSSSTAYMELLSLTSEDSAVYYCASLDYWGQGTSVTVSSAKTTPPSVYPLAPGSAAQTNSMVTLGCLVKGYFPEPVTVTWNSGSLSSGVHTFPAVLQSDLYTLSSSVTVPSSTWPSETVTCNVAHPASSTKVDKKIVPRDCGCKPCICTVPEVSSVFIFPPKPKDVLTITLTPKVTCVVVDISKDDPEVQFSWFVDDVEVHTAQTQPREEQFNSTFRSVSELPIMHQDWLNGKEFKCRVNSAAFPAPIEKTISKTKGRPKAPQVYTIPPPKEQMAKDKVSLTCMITDFFPEDITVEWQWNGQPAENYKNTQPIMDTDGSYFVYSKLNVQKSNWEAGNTFTCSVLHEGLHNHHTEKSLSHSPGKGGGGGMKLKKIKSVLKKIKSVLKKIKSVLKKIKSVVGER
light: DVVMTQTPLSLPVSLGDQASISCRSSQSLVHSSGNTYLHWYLQKPGQSPKLLIYKVSNRFSGVPDRFSGSGSGTDFTLKISRVEAEDLGVYFCSQSTHVPYTFGGGTKLEIKRADAAPTVSIFPPSSEQLTSGGASVVCFLNNFYPKDINVKWKIDGSERQNGVLNSWTDQDSKDSTYSMSSTLTLTKDEYERHNSYTCEATHKTSTSPIVKSFNRNEC
Consider B2, for which the values for the Kd in data set [2] (setting [8]) and in data set [2] (setting [9]) were around 0.46 nM and 2.8 nM, respectively.

B3: ADC (conjugate)
heavy: EVQLQQSGPDLVKPGASMKISCKASGYSFTDYTMHWVKQSHGKNFEWIGLINPYNDGTTYNQKFKGKATLTVDKSSSTAYMELLSLTSEDSAVYYCASLDYWGQGTSVTVSSAKTTPPSVYPLAPGSAAQTNSMVTLGCLVKGYFPEPVTVTWNSGSLSSGVHTFPAVLQSDLYTLSSSVTVPSSTWPSETVTCNVAHPASSTKVDKKIVPRDCGCKPCICTVPEVSSVFIFPPKPKDVLTITLTPKVTCVVVDISKDDPEVQFSWFVDDVEVHTAQTQPREEQFNSTFRSVSELPIMHQDWLNGKEFKCRVNSAAFPAPIEKTISKTKGRPKAPQVYTIPPPKEQMAKDKVSLTCMITDFFPEDITVEWQWNGQPAENYKNTQPIMDTDGSYFVYSKLNVQKSNWEAGNTFTCSVLHEGLHNHHTEKSLSHSPGKGGGGGMKLKKIKSVLKKIKSVLKKIKSVLKKIKSVVGER
light: DVVMTQTPLSLPVSLGDQASISCRSSQSLVHSSGNTYLHWYLQKPGQSPKLLIYKVSNRFSGVPDRFSGSGSGTDFTLKISRVEAEDLGVYFCSQSTHVPYTFGGGTKLEIKRADAAPTVSIFPPSSEQLTSGGASVVCFLNNFYPKDINVKWKIDGSERQNGVLNSWTDQDSKDSTYSMSSTLTLTKDEYERHNSYTCEATHKTSTSPIVKSFNRNEC
peptide: MKLEEIVSELEEIVSELEEIVKELEEIVYEVGER
Regarding B3, the Kd is around 0.41 nM in data set [2] (setting [8]) and around 1.3 nM in data set [2] (setting [9]). Further, the “decrease in IC50 between 48 and 72 hours” value was around 4 fold in data set [1] (NCI-H358) and around 2 fold in data set [3] (NCI-H520). Besides, in data set [1] (NCI-H358), the “toxicity, 24 hours treatment + 48 hours fresh media vs 72 hours treatment” value is given as “no significant difference between the two treatment groups”. Further, the “normalized growth rate inhibition (GR)” value is below 0 in data set [1] (NCI-H358, higher concentrations of ADC, 60 hours) and below 0 in data set [3] (NCI-H520, higher concentrations of ADC, 60 hours). Besides, the “IC50, start of time course” value is reported as 9.11 ng/ml of MMAE equivalent ADC in data set [1] (NCI-H358, incubation 48, 72 and 120 hours, first value of 'from ... to'); 12.87 ng/ml of MMAE equivalent ADC in data set [3] (NCI-H520, incubation 48, 72 and 168 hours, first value of 'from ... to'). The “IC50, end of time course” value is recorded as 8.69 ng/ml of MMAE equivalent ADC in data set [1] (NCI-H358, longer incubation (up to 120 hours), last value of 'from ... to') and 5.24 ng/ml of MMAE equivalent ADC in data set [3] (NCI-H520, longer incubation (up to 168 hours), last value of 'from ... to'). The IC50 in data set [3] (NCI-H520, ADC prepared at 50° C.) amounted to 3 nM; in data set [3] (NCI-H520, ADC prepared at RT), 4.9 nM; in data set [4] (ADC prepared at 50° C.), 6.8 nM; in data set [4] (ADC prepared at RT) it was 5.3 nM; in data set [5] (ADC prepared at 50° C.) it was 0.8 nM; in data set [5] (ADC prepared at RT), 0.8 nM. Moreover, the GR-based effect result in data set [4] (at 60 hours) is “cytotoxic”. The GR50 result in data set [5] is reported as “do not reach that value”. Further, the “difference between 48 and 72 hour IC50s” value in data set [5] was “almost identical”. In addition, the “fold differences in ADC and MMAE IC50s” value in data set [6] (FIG. 14) was above 100 fold. The “fold difference in toxicity (AUC) between ADC and MMAE” value in data set [6] (FIG. 16) was 1-3 fold. Also, in data set [7], the viability is reported as around 76%.
